Data taken from PMC12723162, “Alphaherpesvirus pUL21 homologs use non-canonical sequences to compete with cellular adaptors for protein phosphatase 1 binding” (The Journal of Biological Chemistry, 2025).

B1: H247F (protein)
chain: MELSYATTMHYRDVVFYVTTDRNRAYFVCGGCVYSVGRPCASQPGEIAKFGLVVRGTGPDDRVVANYVRSELRQRGLQDVRPIGEDEVFLDSVCLLNPNVSSELDVINTNDVEVLDECLAEYCTSLRTSPGVLISGLRVRAQDRIIELFEHPTIVNVSSHFVYTPSPYVFALAQAHLPRLPSSLEALVSGLFDGIPAPRQPLDAHNPRTDVVITGRRAPRPIAGSGAGSGGAGAKRATVSEFVQVKFIDRVGPAGVSPAPPPNNTDSSSLVPGAQDSAPPGPTLRELWWVFYAADRALEEPRADSGLTREEVRAVRGFREQAWKLFGSAGAPRAFIGAALGLSPLQKLAVYYYIIHRERRLSPFPALVRLVGRYTQRHGLYVPRPDDPVLADAINGLFRDALAAGTTAEQLLMFDLLPPKDVPVGSDVQADSTALLRFIESQRLAVPGGVISPEHVAYLGAFLSVLYAGRGRMSAATHTARLTGVTSLVLAVGDVDRLSAFDRGAAGAASRTRAAGYLDVLLTVRLARSQHGQSV
modifications: left off: GFP (from the vector pEGFP-N1), end not stated, kept
B2: A232K (protein)
chain: MELSYATTMHYRDVVFYVTTDRNRAYFVCGGCVYSVGRPCASQPGEIAKFGLVVRGTGPDDRVVANYVRSELRQRGLQDVRPIGEDEVFLDSVCLLNPNVSSELDVINTNDVEVLDECLAEYCTSLRTSPGVLISGLRVRAQDRIIELFEHPTIVNVSSHFVYTPSPYVFALAQAHLPRLPSSLEALVSGLFDGIPAPRQPLDAHNPRTDVVITGRRAPRPIAGSGAGSGGKGAKRATVSEFVQVKHIDRVGPAGVSPAPPPNNTDSSSLVPGAQDSAPPGPTLRELWWVFYAADRALEEPRADSGLTREEVRAVRGFREQAWKLFGSAGAPRAFIGAALGLSPLQKLAVYYYIIHRERRLSPFPALVRLVGRYTQRHGLYVPRPDDPVLADAINGLFRDALAAGTTAEQLLMFDLLPPKDVPVGSDVQADSTALLRFIESQRLAVPGGVISPEHVAYLGAFLSVLYAGRGRMSAATHTARLTGVTSLVLAVGDVDRLSAFDRGAAGAASRTRAAGYLDVLLTVRLARSQHGQSV
modifications: left off: GFP (from the vector pEGFP-N1), end not stated, kept
B3: A218E (protein)
chain: MELSYATTMHYRDVVFYVTTDRNRAYFVCGGCVYSVGRPCASQPGEIAKFGLVVRGTGPDDRVVANYVRSELRQRGLQDVRPIGEDEVFLDSVCLLNPNVSSELDVINTNDVEVLDECLAEYCTSLRTSPGVLISGLRVRAQDRIIELFEHPTIVNVSSHFVYTPSPYVFALAQAHLPRLPSSLEALVSGLFDGIPAPRQPLDAHNPRTDVVITGRREPRPIAGSGAGSGGAGAKRATVSEFVQVKHIDRVGPAGVSPAPPPNNTDSSSLVPGAQDSAPPGPTLRELWWVFYAADRALEEPRADSGLTREEVRAVRGFREQAWKLFGSAGAPRAFIGAALGLSPLQKLAVYYYIIHRERRLSPFPALVRLVGRYTQRHGLYVPRPDDPVLADAINGLFRDALAAGTTAEQLLMFDLLPPKDVPVGSDVQADSTALLRFIESQRLAVPGGVISPEHVAYLGAFLSVLYAGRGRMSAATHTARLTGVTSLVLAVGDVDRLSAFDRGAAGAASRTRAAGYLDVLLTVRLARSQHGQSV
modifications: left off: GFP (from the vector pEGFP-N1), end not stated, kept
B4: Q174R (protein)
chain: MELSYATTMHYRDVVFYVTTDRNRAYFVCGGCVYSVGRPCASQPGEIAKFGLVVRGTGPDDRVVANYVRSELRQRGLQDVRPIGEDEVFLDSVCLLNPNVSSELDVINTNDVEVLDECLAEYCTSLRTSPGVLISGLRVRAQDRIIELFEHPTIVNVSSHFVYTPSPYVFALARAHLPRLPSSLEALVSGLFDGIPAPRQPLDAHNPRTDVVITGRRAPRPIAGSGAGSGGAGAKRATVSEFVQVKHIDRVGPAGVSPAPPPNNTDSSSLVPGAQDSAPPGPTLRELWWVFYAADRALEEPRADSGLTREEVRAVRGFREQAWKLFGSAGAPRAFIGAALGLSPLQKLAVYYYIIHRERRLSPFPALVRLVGRYTQRHGLYVPRPDDPVLADAINGLFRDALAAGTTAEQLLMFDLLPPKDVPVGSDVQADSTALLRFIESQRLAVPGGVISPEHVAYLGAFLSVLYAGRGRMSAATHTARLTGVTSLVLAVGDVDRLSAFDRGAAGAASRTRAAGYLDVLLTVRLARSQHGQSV
modifications: left off: GFP (from the vector pEGFP-N1), end not stated, kept
B5: A237V (protein)
chain: MELSYATTMHYRDVVFYVTTDRNRAYFVCGGCVYSVGRPCASQPGEIAKFGLVVRGTGPDDRVVANYVRSELRQRGLQDVRPIGEDEVFLDSVCLLNPNVSSELDVINTNDVEVLDECLAEYCTSLRTSPGVLISGLRVRAQDRIIELFEHPTIVNVSSHFVYTPSPYVFALAQAHLPRLPSSLEALVSGLFDGIPAPRQPLDAHNPRTDVVITGRRAPRPIAGSGAGSGGAGAKRVTVSEFVQVKHIDRVGPAGVSPAPPPNNTDSSSLVPGAQDSAPPGPTLRELWWVFYAADRALEEPRADSGLTREEVRAVRGFREQAWKLFGSAGAPRAFIGAALGLSPLQKLAVYYYIIHRERRLSPFPALVRLVGRYTQRHGLYVPRPDDPVLADAINGLFRDALAAGTTAEQLLMFDLLPPKDVPVGSDVQADSTALLRFIESQRLAVPGGVISPEHVAYLGAFLSVLYAGRGRMSAATHTARLTGVTSLVLAVGDVDRLSAFDRGAAGAASRTRAAGYLDVLLTVRLARSQHGQSV
modifications: left off: GFP (from the vector pEGFP-N1), end not stated, kept
B6: R250E (protein)
chain: MELSYATTMHYRDVVFYVTTDRNRAYFVCGGCVYSVGRPCASQPGEIAKFGLVVRGTGPDDRVVANYVRSELRQRGLQDVRPIGEDEVFLDSVCLLNPNVSSELDVINTNDVEVLDECLAEYCTSLRTSPGVLISGLRVRAQDRIIELFEHPTIVNVSSHFVYTPSPYVFALAQAHLPRLPSSLEALVSGLFDGIPAPRQPLDAHNPRTDVVITGRRAPRPIAGSGAGSGGAGAKRATVSEFVQVKHIDEVGPAGVSPAPPPNNTDSSSLVPGAQDSAPPGPTLRELWWVFYAADRALEEPRADSGLTREEVRAVRGFREQAWKLFGSAGAPRAFIGAALGLSPLQKLAVYYYIIHRERRLSPFPALVRLVGRYTQRHGLYVPRPDDPVLADAINGLFRDALAAGTTAEQLLMFDLLPPKDVPVGSDVQADSTALLRFIESQRLAVPGGVISPEHVAYLGAFLSVLYAGRGRMSAATHTARLTGVTSLVLAVGDVDRLSAFDRGAAGAASRTRAAGYLDVLLTVRLARSQHGQSV
modifications: left off: GFP (from the vector pEGFP-N1), end not stated, kept
B7: VV211AA (protein)
chain: MELSYATTMHYRDVVFYVTTDRNRAYFVCGGCVYSVGRPCASQPGEIAKFGLVVRGTGPDDRVVANYVRSELRQRGLQDVRPIGEDEVFLDSVCLLNPNVSSELDVINTNDVEVLDECLAEYCTSLRTSPGVLISGLRVRAQDRIIELFEHPTIVNVSSHFVYTPSPYVFALAQAHLPRLPSSLEALVSGLFDGIPAPRQPLDAHNPRTDAAITGRRAPRPIAGSGAGSGGAGAKRATVSEFVQVKHIDRVGPAGVSPAPPPNNTDSSSLVPGAQDSAPPGPTLRELWWVFYAADRALEEPRADSGLTREEVRAVRGFREQAWKLFGSAGAPRAFIGAALGLSPLQKLAVYYYIIHRERRLSPFPALVRLVGRYTQRHGLYVPRPDDPVLADAINGLFRDALAAGTTAEQLLMFDLLPPKDVPVGSDVQADSTALLRFIESQRLAVPGGVISPEHVAYLGAFLSVLYAGRGRMSAATHTARLTGVTSLVLAVGDVDRLSAFDRGAAGAASRTRAAGYLDVLLTVRLARSQHGQSV
modifications: left off: GFP (from the vector pEGFP-N1), end not stated, kept

The molecules below were run on endogenous PP1α (assay: GFP affinity capture / co-IP of endogenous PP1α with GFP-tagged bait). Conditions: HEK 293T cells, 24 h post-transfection, GFP-Trap, immunoblot; representative of two independent experiments.
Type: binding, human
Description: Bacterial expression plasmids encoding the mouse PP1γ catalytic domain (residues 7–300)-H6 and pUL21-H6, and mammalian expression vectors encoding pUL21(FV242AA)-GFP, pORF38-GFP and pORF38(FV255AA)-GFP, were described previously ([23]). We note that the mouse and human PP1γ catalytic domains share 100% amino acid identity. pORF38-NLT-H6 was generated by sub-cloning residues 1 to 263 of ORF38 into the vector pOPTnH ([52]). pUL21-RVxF-H6 was generated by inserting the mutations A237V and V239F into pUL21-H6 by QuikChange site-directed mutagenesis. Human PP1α was cloned from HeLa cell cDNA into a vector derived from pF5K (Promega) with an N-terminal Myc epitope tag via restriction-based cloning, and point mutations were introduced into Myc-PP1α by QuikChange mutagenesis. A plasmid encoding pUL21-GFP was generated by sub-cloning a codon-optimized synthetic UL21 gene (GeneArt) into pEGFP-N1 (Clontech), yielding an identical pUL21-GFP amino acid sequence as used in ([23]). pUL21-ΔL, -ΔR and -ΔLR were generated from this vector via inverse PCR, and point mutations were introduced via QuikChange mutagenesis.
Mycoplasma-free human embryonic kidney 293T (HEK 293T) cells (American Type Culture Collection #CRL-3216) were maintained in Dulbecco’s modified Eagle’s medium (DMEM) with high glucose (Merck), supplemented with 10% (v/v) heat-inactivated fetal calf serum and 2 mM L-glutamine (complete DMEM) in a humidified 5% CO2 atmosphere at 37 °C. The identity of the cell line was not independently confirmed.
Monolayers of HEK 293T cells were transfected with 7.7 μg of DNA per 9 cm dish, using 18 μg/ml 25 kDa branched polyethylenimine (Merck) or using TransIt-LT1 (Mirus) in accordance with the manufacturer’s instructions. Cells were harvested 24 h post-transfection and incubated for 30 min in ice-cold 10 mM Tris pH 7.5, 150 mM NaCl, 0.5 mM EDTA, 0.5% Igepal CA-630 (a.k.a. NP-40), 1% (v/v) EDTA-free protease inhibitor cocktail (Merck) before clarification at 21,000×g for 10 min at 4 °C. Lysate protein concentrations were measured using the bicinchoninic acid (BCA) assay (Pierce) and normalized before affinity capture using GFP-Trap resin (ChromoTek) following the manufacturer’s protocol. Samples were eluted by heating the resin to 95 °C for 5 min in 45 μl 2 × SDS-PAGE loading buffer. Proteins were separated by SDS-PAGE and transferred to 0.45 μm nitrocellulose membranes (PerkinElmer or Cytiva). Membranes were stained with Ponceau S and imaged using a G:Box XX9 (Syngene) before blocking in Tris-buffered saline with 0.1% TWEEN-20 (TBS-T) supplemented with 5% (w/v) non-fat milk powder. Immunoblotting was performed using antibodies diluted in blocking buffer as listed below, and immunoblots were imaged using an Odyssey CLx (LI-COR Biosciences). Densitometry was performed using Image Studio Lite version 5.2 (LI-COR Biosciences), and statistical tests were performed using Prism version 7 (GraphPad).
The following primary antibodies and dilutions were used for immunoblotting: rabbit anti-CERT 1:10,000 (Abcam #Ab72536), mouse anti-PP1α 1:1000 (Santa Cruz #sc-271762), mouse anti-Myc 1:4000 (Millipore #05–724), rat anti-tubulin (clone YL1/2) hybridoma supernatant 1:40 ([54]). The anti-CERT antibody was validated using a knock-out cell line. The anti-PP1α antibody has been validated by siRNA knockdown ([55]). The anti-Myc antibody was validated using control experiments lacking Myc-tagged transfected constructs ([56]). The anti-tubulin antibody has been validated by immunofluorescence microscopy, immuno-electron microscopy and radiolabeled immunosorbent assay ([54]). Secondary antibodies from LI-COR Biosciences were diluted 1:10,000 as follows: IRDye 680RD goat anti-rat (#926–68029) and goat anti-mouse (#926–68020), or IRDye 800CW goat anti-rabbit (#926–32221).

Molecule	Co-IP of endogenous PP1α
B1	co-precipitated more PP1α than did WT pUL21-GFP
B2	did not dramatically alter PP1α coIP
B3	PP1α coIP was abolished
B4	PP1α coIP was abolished
B5	co-precipitated more PP1α than did WT pUL21-GFP
B6	dramatically reduced binding
B7	PP1α coIP was abolished
